The target of assay [1] is EGFR extracellular domain-Cλ fusion protein (Homo sapiens) (UniProt P00533). In words: SPR.
Assay [2] deals with EGFR extracellular domain-Cλ fusion protein (Homo sapiens, UniProt P00533). In words: SPR. In general terms: SPR reads the build-up and loss of mass on a sensor chip optically.

Data on eight molecules can be found in paper PMC3906306 (mAbs, 2013).

With hu225 VH:T57G (antibody), the Kd (usually the constant that tells how readily two partners part at equilibrium) in assay [1] came to 3.9 nM. In other words, the single-digit nanomolar range.
For the molecule hu225 VH:F100cY (antibody), the Kd in assay [1] is 4 nM.
Regarding hu225 VH:Y32R (antibody), the Kd in assay [1] was determined as 6.8 nM.
Molecule hu225 VH:T97D (antibody) yielded a Kd in assay [1] of 1.6 nM. This Kd is about 4.2-fold lower than that of the molecule before.
The molecule hu225 VH:V50L (antibody) registered a Kd in assay [1] of 3.1 nM.
Consider hu225 VH:G33D (antibody), for which, in assay [1], the Kd turned out to be 1.9 nM.
Same read-out and setting: then hu225 VL:A25V (antibody), with 3 nM.

B1: hu225 VL:G30Y (antibody, V domains shown)
VH: EVQLVESGGGLVQPGGSLRLSCAASGFSLTNYGVHWVRQAPGKGLEWLGVIWSGGNTDYNTPFTSRLTINKDNSKNTVYLQMNSLRAEDTAVYYCARALTYYDYEFAYWGQGTLVTVSS
VL: DILLTQSPGTLSLSPGERATLSCRASQSIYTNIHWYQQKPGQAPRLLIKYASESISGIPDRFSGSGSGTDFTLTISRLEPEDFAVYYCQQNNNWPTTFGQGTKLEIK
In turn, B1 returned a Kd in assay [2] of 1.8 nM.
